Data: patent US6673571B2, “Polypeptides having aminopeptidase activity and nucleic acids encoding same” (Novozymes Biotech, Inc., priority 1997, dated 2004)

Legend:
soy protein = assay: Release of free amino acids (FAA) in soy protein hydrolysis; type: biochemical, soy bean
Method: Hydrolysis was carried out on a 10 ml scale at 50° C. for 18 hours. The initial pH was 7 with no pH readjustment during hydrolysis. Inactivation of the enzyme was carried out at 85° C. for 3 minutes in a water bath. The substrate concentration was 2% protein from soy bean meal. The substrate was heat treated in a water bath at 85° C. for 3 minutes. The enzymes used with FLAVOURZYME 1000L™ and ALCALASE 2.4L® described above were crude Sphingomonas capsulata aminopeptidase I powder (see Example 1) and the purified Sphingomonas capsulata aminopeptidase I described in Example 4.
Hyp, methioninsulphonic acid, and Trp were not included in the Table due to very fluctuating and uncertain results.

[1] = Specific activity in glycine aminopeptidase units (GAPU); type: biochemical; conditions: Gly-pNA, 50 mM Tris-HCl pH 7.5, 37° C.
Method: The enzymes used with FLAVOURZYME™ and ALCALASE® were crude Sphingomonas capsulata aminopeptidase I powder and purified Sphingomonas capsulata aminopeptidase I as in Example 7. Glycine aminopeptidase unit (GAPU) of both crude and purified enzyme was measured in 50 mM Tris-HCl pH 7.5 buffer at 37° C. using Gly-pNA as a substrate. Aminopeptidase I was assayed at 37° C. in 50 mM Tris-HCl (pH 7.5). Gly-pNA (Bachem Feinchemikalien AG, Bubendorf, Switzerland) was dissolved in 40% dioxane at a concentration of 2.5 mg/ml and 1.5 volume of 50 mM Tris-HCl (pH 7.5) was added to a substrate concentration of 1 mg/ml. The enzyme sample was diluted in 500 μl of the same buffer and 100 μl of the substrate solution was added and incubated at 37° C. for 5 minutes. The reaction was terminated by the addition of 300 μl of 1 M sodium acetate pH 4.0 buffer. For the blank reaction, the stop solution was added to the enzyme solution and incubated for 5 minutes at 37° C., and then the substrate solution was added. The absorbance at 410 nm was measured for both the sample and blank reactions. The enzyme activity was calculated using the molecular extinction coefficient at 410 nm for pNA as 9480 M^−1 cm^−1. One unit of GAPU was defined as the quantity of enzyme that hydrolyses 1 micromole of Gly-pNA at 37° C. per minute under the conditions described above. […]

[2] = Temperature stability (residual activity after 20 minutes incubation); type: physicochemical; conditions: pH 7.5
Method: The temperature stability of aminopeptidase I was determined by incubating the enzyme for 20 minutes in 50 mM sodium phosphate pH 7.5 buffer at temperatures in the range of 35° C. to 55° C. followed by cooling on ice and measuring the residual activity using Ala-pNA as substrate at pH 7.5 as described above.

gelatin = assay: Degree of hydrolysis (DH) in gelatin hydrolysis, OPA method; type: biochemical; conditions: 50° C., 18 hours
Method: The aminopeptidase I was added in increased dosage to either a low or a high background of FLAVOURZYME™ and ALCALASE® as performed in Example 7.
Hydrolysis was carried out in 200 μl reactions in Eppendorf tubes. The substrate gelatin (Merck) was dissolved in distilled water at 85° C. for 5 minutes. After cooling to 50° C., the pH was adjusted to 6.5. The final gelatin concentration was adjusted to 2% after the addition of enzymes. The substrate concentration in each reaction was calculated to be 4 mg.
The hydrolysis reactions were performed at 50° C. for 18 hours. Enzymes were inactivated at 85° C. for 5 minutes followed by centrifugation. DH was calculated on the basis of the total protein content of hydrolysate using the OPA method.

[3] = 1.5% FLAVOURZYME +67 kDa AP versus 6.0% FLAVOURZYME

B1: Sphingomonas capsulata aminopeptidase I: purified aminopeptidase of 67 kDa from Sphingomonas capsulata IFO 12533; deduced amino acid sequence SEQ ID NO:2 (protein)
chain: MRKTPQGIGLLSALSTSTLALATLILAQPALAQVQPASNSRPMAVPIAHGVPDAQDVPYPGTIGLQIDATDLATGAFRVVETVPVAADAKELILQLPAWLPGEHGNRGPVAELAGITFEAKGQKLAWTRDPVEVNAFHIPLPAGTSEVVARFIHTSPLRDSEGRITVTREMLNVQWEKMSLYPAGHYVRQIKVRPTVSFPQGWTVFTALDGKTQSGAGNTVTWAETDYETLVDSPIFAGLYAARHDLGHNVYFDLVADKPELLAIKPENLAAYRNLADEAVGAFGARHFDHYDFLLALTDRMGSIGLEHHRSSENQQEPKSLTDWAAYDWDRNVIAHEFSHSWDGKYRRSAKLWTPDYRQPMQDNLLWVYEGQTQFWGLVLAARSGVQSKDVVLGSLANYAGTFTQTAGRDWRSVEDTTMDPIFAARKPKPYSSLTRNEDYYTEGALVWLEADQIIRDGTGGKKGLDDFAKAFFGVRDGDWGVLTYEFDDVVKTLNGVYPYDWATFLKTRLQTPGQPVPLGGIERGGYKLEFKDEPNPYDKARMADAKVLSLFNSLGVTLDKDGKVTASRWDGPAFKAGLVSGMQVMAVNGDAYDADKLKGAITNAKTGNPGAGRPIELLVKRDDRFVTLPITYADGLRWPWLVRTAPGTAPTGLDKLLAPHASKLPVGKAAK
% Relative increase in FAA: Ala (soy protein; 1.5% FLAVOURZYME +67 kDa AP): 130.3%
% Relative increase in FAA: Arg (soy protein; 1.5% FLAVOURZYME +67 kDa AP): 37.4%
% Relative increase in FAA: Asn (soy protein; 1.5% FLAVOURZYME +67 kDa AP): 32.3%
% Relative increase in FAA: Asp (soy protein; 1.5% FLAVOURZYME +67 kDa AP): 164.5%
% Relative increase in FAA: Cys (soy protein; 1.5% FLAVOURZYME +67 kDa AP): 12.6%
% Relative increase in FAA: Gln (soy protein; 1.5% FLAVOURZYME +67 kDa AP): 138.9%
% Relative increase in FAA: Glu (soy protein; 1.5% FLAVOURZYME +67 kDa AP): 145.9%
% Relative increase in FAA: Gly (soy protein; 1.5% FLAVOURZYME +67 kDa AP): 305.7%
% Relative increase in FAA: His (soy protein; 1.5% FLAVOURZYME +67 kDa AP): 30.3%
% Relative increase in FAA: Ile (soy protein; 1.5% FLAVOURZYME +67 kDa AP): 48.7%
% Relative increase in FAA: Leu (soy protein; 1.5% FLAVOURZYME +67 kDa AP): 35.2%
% Relative increase in FAA: Lys (soy protein; 1.5% FLAVOURZYME +67 kDa AP): 62.4%
% Relative increase in FAA: Met (soy protein; 1.5% FLAVOURZYME +67 kDa AP): −20.0%
% Relative increase in FAA: Phe (soy protein; 1.5% FLAVOURZYME +67 kDa AP): 41.8%
% Relative increase in FAA: Pro (soy protein; 1.5% FLAVOURZYME +67 kDa AP): 32.4%
% Relative increase in FAA: Ser (soy protein; 1.5% FLAVOURZYME +67 kDa AP): 69.3%
% Relative increase in FAA: Thr (soy protein; 1.5% FLAVOURZYME +67 kDa AP): 34.7%
% Relative increase in FAA: Tyr (soy protein; 1.5% FLAVOURZYME +67 kDa AP): 47.6%
% Relative increase in FAA: Val (soy protein; 1.5% FLAVOURZYME +67 kDa AP): 44.0%
% Relative increase in FAA: total (soy protein; 1.5% FLAVOURZYME +67 kDa AP): 64.5%
% Relative increase in FAA: Ala (soy protein; [3]): 27.3%
% Relative increase in FAA: Arg (soy protein; [3]): −2.9%
% Relative increase in FAA: Asn (soy protein; [3]): −15.2%
% Relative increase in FAA: Asp (soy protein; [3]): 24.2%
% Relative increase in FAA: Cys (soy protein; [3]): 6.3%
% Relative increase in FAA: Gln (soy protein; [3]): 9.9%
% Relative increase in FAA: Glu (soy protein; [3]): 28.7%
% Relative increase in FAA: Gly (soy protein; [3]): 90.6%
% Relative increase in FAA: His (soy protein; [3]): −6.8%
% Relative increase in FAA: Ile (soy protein; [3]): −21.0%
% Relative increase in FAA: Leu (soy protein; [3]): −9.1%
% Relative increase in FAA: Lys (soy protein; [3]): −1.4%
% Relative increase in FAA: Met (soy protein; [3]): −46.7%
% Relative increase in FAA: Phe (soy protein; [3]): −4.5%
% Relative increase in FAA: Pro (soy protein; [3]): −39.7%
% Relative increase in FAA: Ser (soy protein; [3]): 12.5%
% Relative increase in FAA: Thr (soy protein; [3]): −18.3%
% Relative increase in FAA: Tyr (soy protein; [3]): −6.9%
% Relative increase in FAA: Val (soy protein; [3]): −17.7%
% Relative increase in FAA: total (soy protein; [3]): 0.0%
% Relative increase in FAA: Ala (soy protein; 6.0% FLAVOURZYME +67 kDa AP): 36.5%
% Relative increase in FAA: Arg (soy protein; 6.0% FLAVOURZYME +67 kDa AP): −31.4%
% Relative increase in FAA: Asn (soy protein; 6.0% FLAVOURZYME +67 kDa AP): 7.6%
% Relative increase in FAA: Asp (soy protein; 6.0% FLAVOURZYME +67 kDa AP): 24.8%
% Relative increase in FAA: Cys (soy protein; 6.0% FLAVOURZYME +67 kDa AP): 9.5%
% Relative increase in FAA: Gln (soy protein; 6.0% FLAVOURZYME +67 kDa AP): 28.1%
% Relative increase in FAA: Glu (soy protein; 6.0% FLAVOURZYME +67 kDa AP): 31.3%
% Relative increase in FAA: Gly (soy protein; 6.0% FLAVOURZYME +67 kDa AP): 92.9%
% Relative increase in FAA: His (soy protein; 6.0% FLAVOURZYME +67 kDa AP): 7.5%
% Relative increase in FAA: Ile (soy protein; 6.0% FLAVOURZYME +67 kDa AP): 7.2%
% Relative increase in FAA: Leu (soy protein; 6.0% FLAVOURZYME +67 kDa AP): 5.2%
% Relative increase in FAA: Lys (soy protein; 6.0% FLAVOURZYME +67 kDa AP): 13.8%
% Relative increase in FAA: Met (soy protein; 6.0% FLAVOURZYME +67 kDa AP): 21.1%
% Relative increase in FAA: Phe (soy protein; 6.0% FLAVOURZYME +67 kDa AP): 7.2%
% Relative increase in FAA: Pro (soy protein; 6.0% FLAVOURZYME +67 kDa AP): −11.5%
% Relative increase in FAA: Ser (soy protein; 6.0% FLAVOURZYME +67 kDa AP): 41.7%
% Relative increase in FAA: Thr (soy protein; 6.0% FLAVOURZYME +67 kDa AP): 2.4%
% Relative increase in FAA: Tyr (soy protein; 6.0% FLAVOURZYME +67 kDa AP): 8.5%
% Relative increase in FAA: Val (soy protein; 6.0% FLAVOURZYME +67 kDa AP): 6.3%
% Relative increase in FAA: total (soy protein; 6.0% FLAVOURZYME +67 kDa AP): 10.3%
specific activity [1]: 6.45 GAPU/mg
residual activity ([2]; 45° C.): approximately 60%
residual activity ([2]; 50° C.): completely inactivated
temperature stability ([2]; up to 40° C.): approximately 100%
DH (gelatin; 0.2 U/4 mg gelatin added to low FLAVOURZYME background (2%) + 1% ALCALASE, from DH 38%): 61%
DH (gelatin; added to 7% FLAVOURZYME + 1% ALCALASE): 61%
